Reference: the RNAGym collection of RNA variant scans (doi:10.1073/pnas.2313332121)

B1: TPR t1 (parent)
chain: GACCAAUCUGCCCUCAGAGCUCGAGAACAUCUUCGGAUGCAGAGGAGGCAGGCUUCGGUGGCGCGAUAGCGCCAACGUCCUCAACCUCCAAUGCAUCCCACCACAUGAUGAUGCCUGAAGAGCCUUGGUUUUUUG

Variants of: B1
Assay: polymerase ribozyme fitness, log enrichment relative to wild type (log ratio); higher = more active; in vitro selection for triplet polymerase activity
In short: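 Streptavidin-bead capture of gel-excised extended constructs, followed by RT-PCR, closed a single triplicate in vitro selection round. That round began by annealing PCR-built, transcribed mutant libraries of each subunit of a heterodimeric triplet polymerase ribozyme with a biotinylated primer, the partner subunit and triplets, then incubating them frozen at −7 °C. After Illumina sequencing of inputs and outputs, genotypes needed ≥10 input reads and ≥1 read per output. Fitness is the base-2 logarithm of genotype enrichment over wild-type enrichment, using inverse-variance-weighted replicate averages.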

Going from U7C G47A G48A G69U U78C to C12U G110C, the “polymerase ribozyme fitness (log ratio)” value falls from -0.567 to -2.23.

Compared with C13G G39C G113C, C62U A103G is lower in “polymerase ribozyme fitness (log ratio)” value: -3.84 for the first, -5.08 for the second.

Going from A74C A75U G110A to C86A C124G G128A, the “polymerase ribozyme fitness (log ratio)” value rises from -1.52 to 0.914.

Going from C49G C99A G120C G122U to A50U G61C C79G U106C C115U C124A, the “polymerase ribozyme fitness (log ratio)” value rises from -6.79 to -5.24.

First: C28A C88U C101U
Second: C73U U116A
The “polymerase ribozyme fitness (log ratio)” value of the first is lower: -5.29 for the first, -3.52 for the second.

Going from C12A G65U G110A U131G G135U to C53U A90C U96G A118U, the “polymerase ribozyme fitness (log ratio)” value rises from -7.22 to -1.37.

Compared with C12G C76A A95U C115U, C8A C53U C114A is higher in “polymerase ribozyme fitness (log ratio)” value: -4.26 for the first, 0.0648 for the second.

Compared with G35A C102A, C79A U116G is higher in “polymerase ribozyme fitness (log ratio)” value: -4.61 for the first, -4.15 for the second.

Going from C34U U109A U130G to C40U C98G, the “polymerase ribozyme fitness (log ratio)” value falls from -4.69 to -6.34.

First: G39A C82A
Second: A50U G51U G69A C97U U109A
The “polymerase ribozyme fitness (log ratio)” value of the first is higher: -0.962 for the first, -6.25 for the second.

First: G61A A103U G113C
Second: G35A U55C C115U
The “polymerase ribozyme fitness (log ratio)” value of the first is lower: -6.41 for the first, -5.27 for the second.

First: C4A C40U C62A U112A
Second: C3U G17U C72U
The “polymerase ribozyme fitness (log ratio)” value of the first is higher: -2.53 for the first, -2.73 for the second.

Going from C11G A41U C56A C72U U92G to C53A G60A C72A A91U U92G C97A C124A, the “polymerase ribozyme fitness (log ratio)” value falls from -1.47 to -7.15.

First: G44C A46U G58A G63U G117A U130G
Second: C13U G42U C104U
The “polymerase ribozyme fitness (log ratio)” value of the first is lower: -6.42 for the first, -0.915 for the second.

Going from G51A C99U C124A to A2C C73A, the “polymerase ribozyme fitness (log ratio)” value rises from -5.8 to -1.09.

First: C15G A74U C88A C101U
Second: C3U C53A G71A U78A
The “polymerase ribozyme fitness (log ratio)” value of the first is lower: -4.74 for the first, -0.343 for the second.

First: G44A G48C
Second: C64U C82U G93U C94U U96C C123U
The “polymerase ribozyme fitness (log ratio)” value of the first is higher: -1.44 for the first, -3.01 for the second.

Compared with C11A G48U U96G U112C, G48C G93C is higher in “polymerase ribozyme fitness (log ratio)” value: -1.36 for the first, -0.578 for the second.

Compared with C88U U106A U130A, C13A C73A is lower in “polymerase ribozyme fitness (log ratio)” value: -0.0999 for the first, -1.36 for the second.

First: G69C A119U
Second: C49U U96A U106A
The “polymerase ribozyme fitness (log ratio)” value of the first is higher: -1.32 for the first, -1.67 for the second.

Going from G52U C56A C102A to U55A G117A, the “polymerase ribozyme fitness (log ratio)” value rises from -2.74 to -1.34.

G19A C86G C101U and C8U C34A G44U G61A U130G are within 0.2 log units of each other in “polymerase ribozyme fitness (log ratio)” value: -4.15 for the first, -4.33 for the second.

First: C56G C62U A105U U129C
Second: A5U C40U C88A C101A A121U
The “polymerase ribozyme fitness (log ratio)” value of the first is lower: -3.68 for the first, 0.119 for the second.

First: C8A C86G
Second: C98G G110A
The “polymerase ribozyme fitness (log ratio)” value of the first is higher: -1.3 for the first, -4.98 for the second.

Going from C12A C72G U133C to G47A C85A G117C A121C, the “polymerase ribozyme fitness (log ratio)” value falls from -1.17 to -5.39.

First: C15G C49G G71U A74U U106C C124U
Second: G10A U38C G45A C79U
The “polymerase ribozyme fitness (log ratio)” value of the first is lower: -5.29 for the first, -1.29 for the second.

First: G58A G61U
Second: C22G G60C C104A A121U
The “polymerase ribozyme fitness (log ratio)” value of the first is higher: -0.422 for the first, -2.34 for the second.

Compared with A119C C123G, U7C C98U U112A is lower in “polymerase ribozyme fitness (log ratio)” value: -1.25 for the first, -1.84 for the second.

Compared with A46G C86A G120C, C12A G77A is higher in “polymerase ribozyme fitness (log ratio)” value: -0.884 for the first, -0.669 for the second.

Compared with G48A G71A C102A, C8G A16C G61C G71A G120C is lower in “polymerase ribozyme fitness (log ratio)” value: -3.85 for the first, -6.1 for the second.

Compared with A18G C62U C86G, G39C is higher in “polymerase ribozyme fitness (log ratio)” value: -4.96 for the first, -0.776 for the second.

First: G44C C56G G69U
Second: G10A G42U C72A C76G C115A
The “polymerase ribozyme fitness (log ratio)” value of the first is higher: -2.28 for the first, -3.07 for the second.

Compared with C11U C73G, G47U C64A C80G U87G C88A U112A is lower in “polymerase ribozyme fitness (log ratio)” value: 0.0999 for the first, -6.27 for the second.

Going from A50C G120C to C53G U131G, the “polymerase ribozyme fitness (log ratio)” value falls from 0.605 to -1.07.

First: G52U A83U G127A
Second: A74C U92C G127A
The “polymerase ribozyme fitness (log ratio)” value of the first is lower: -3.16 for the first, -2.3 for the second.

A5G C8U G61U C94U and C8U G39A are within 0.2 log units of each other in “polymerase ribozyme fitness (log ratio)” value: 0.251 for the first, 0.0776 for the second.

Compared with C102G G120U, U78A C104A is higher in “polymerase ribozyme fitness (log ratio)” value: -6.6 for the first, -1.8 for the second.

Going from C72U U81G to G10U C34G G65U A66C C123U U125A G128U, the “polymerase ribozyme fitness (log ratio)” value falls from -3.35 to -7.34.

Compared with U7A C89G A91U C97U C115U, G10A G17C C56U is lower in “polymerase ribozyme fitness (log ratio)” value: -1.85 for the first, -2.35 for the second.

Going from C8A A24G C28A A84C A121U to U38C A43U C86A, the “polymerase ribozyme fitness (log ratio)” value rises from -3.25 to -2.82.

First: C11A U33G G52U C56U C64G G120C
Second: A41G C85A C124U G128C U133G
The “polymerase ribozyme fitness (log ratio)” value of the first is lower: -6.81 for the first, -3.58 for the second.

First: C8U U9G G60A
Second: G71A A74U
The “polymerase ribozyme fitness (log ratio)” value of the first is higher: -0.0864 for the first, -3.83 for the second.
